The target in the assay is transferrin receptor 1 (mouse (endogenous in 4T1)) (UniProt Q62351).
Sequence of UniProt Q62351 (Q62351 whole entry): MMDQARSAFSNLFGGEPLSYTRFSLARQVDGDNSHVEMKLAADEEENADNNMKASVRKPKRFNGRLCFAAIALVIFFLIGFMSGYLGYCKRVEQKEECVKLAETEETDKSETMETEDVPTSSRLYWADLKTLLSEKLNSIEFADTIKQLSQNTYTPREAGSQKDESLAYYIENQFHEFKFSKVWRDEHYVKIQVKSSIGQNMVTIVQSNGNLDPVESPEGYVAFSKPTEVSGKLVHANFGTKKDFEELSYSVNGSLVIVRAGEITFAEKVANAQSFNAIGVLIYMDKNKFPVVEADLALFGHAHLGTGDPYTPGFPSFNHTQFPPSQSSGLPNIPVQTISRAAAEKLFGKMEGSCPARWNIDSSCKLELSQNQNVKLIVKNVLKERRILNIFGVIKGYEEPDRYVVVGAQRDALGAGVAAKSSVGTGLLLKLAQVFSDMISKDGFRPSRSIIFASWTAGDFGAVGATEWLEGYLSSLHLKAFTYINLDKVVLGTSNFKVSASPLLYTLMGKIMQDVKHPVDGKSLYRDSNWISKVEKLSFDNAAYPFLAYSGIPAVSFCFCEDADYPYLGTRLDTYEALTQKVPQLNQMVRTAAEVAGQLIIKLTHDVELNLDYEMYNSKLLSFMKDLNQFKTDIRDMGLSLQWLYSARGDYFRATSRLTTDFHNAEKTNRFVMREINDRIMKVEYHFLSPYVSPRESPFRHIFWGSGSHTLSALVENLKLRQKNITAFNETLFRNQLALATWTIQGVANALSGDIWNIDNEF

For “ferritin (FITC-labelled, β-lapachone-loaded ferritin units, Ft-FITC@Lap) (from UniProt Q8MIP0 1-182; P02791 1-175) (natural protein)”, the decrease in FITC fluorescence accumulation (uptake, flow cytometry) in BSA-Man-Ft-FITC@Lap-treated 4T1 cells under pH 6.5 after pre-treatment with TfR1 antibody turned out to be 67% and the mean fluorescence intensity of FITC in 4T1 cells (CLSM) treated with BSA-Man@Mn2+-Ft-FITC@Lap, pH 6.5 group against pH 7.4 group is 3 fold.
